In ChEMBL document CHEMBL2074270, “Transport of amphipathic anions by human multidrug resistance protein 3” (Cancer Res, 2000):

What was measured:
Assay type in all cases: functional, cell membranes
Conditions in all cases: Membrane vesicle
[1] = substrate: CN(Cc1cnc2nc(N)nc(N)c2n1)c1ccc(C(=O)N[C@@H](CCC(=O)O)C(=O)O)cc1; assay: (§1) TP_TRANSPORTER: uptake in membrane vesicles from MRP3-expressing HEK293 cells
[2] = substrate: C[C@]12CC[C@@H]3c4ccc(O)cc4CC[C@H]3[C@@H]1CC[C@@H]2O[C@@H]1O[C@H](C(=O)O)[C@@H](O)[C@H](O)[C@H]1O; assay: as §1
[3] = substrate: CCCCC/C=C\C/C=C\C=C\C=C\[C@@H](SC[C@@H](NC(=O)CC[C@H](N)C(=O)O)C(=O)NCC(=O)O)[C@@H](O)CCCC(=O)O; assay: as §1
[4] = substrate: N[C@@H](CCC(=O)N[C@H](CSc1ccc([N+](=O)[O-])cc1[N+](=O)[O-])C(=O)NCC(=O)O)C(=O)O; assay: as §1
[5] = substrate: C[C@H](CCC(=O)NCC(=O)O)[C@H]1CC[C@H]2[C@@H]3[C@H](O)C[C@@H]4C[C@H](O)CC[C@]4(C)[C@H]3C[C@H](O)[C@]12C; assay: as §1

B1: Multidrug resistance associated protein (Homo sapiens), Q96QA9 (protein)
chain: MDALCGSGELGSKFWDSNLSVHTENPDLTPCFQNSLLAWVPCIYLWVALPCYLLYLRHHCRGYIILSHLSKLKMVLGVLLWCVSWADLFYSFHGLVHGRAPAPVFFVTPLVVGVTMLLATLLIQYERLQGVQSSGVLIIFWFLCVVCAIVPFRSKILLAKAEGEISDPFRFTTFYIHFALVLSALILACFREKPPFFSAKNVDPNPYPETSAGFLSRLFFWWFTKMAIYGYRHPLEEKDLWSLKEEDRSQMVVQQLLEAWRKQEKQTARHKASAAPGKNASGEDEVLLGARPRPRKPSFLKALLATFGSSFLISACFKLIQDLLSFINPQLLSILIRFISNPMAPSWWGFLVAGLMFLCSMMQSLILQHYYHYIFVTGVKFRTGIMGVIYRKALVITNSVKRASTVGEIVNLMSVDAQRFMDLAPFLNLLWSAPLQIILAIYFLWQNLGPSVLAGVAFMVLLIPLNGAVAVKMRAFQVKQMKLKDSRIKLMSEILNGIKVLKLYAWEPSFLKQVEGIRQGELQLLRTAAYLHTTTTFTWMCSPFLVTLITLWVYVYVDPNNVLDAEKAFVSVSLFNILRLPLNMLPQLISNLTQASVSLKRIQQFLSQEELDPQSVERKTISPGYAITIHSGTFTWAQDLPPTLHSLDIQVPKGALVAVVGPVGCGKSSLVSALLGEMEKLEGKVHMKGSVAYVPQQAWIQNCTLQENVLFGKALNPKRYQQTLEACALLADLEMLPGGDQTEIGEKGINLSGGQRQRVSLARAVYSDADIFLLDDPLSAVDSHVAKHIFDHVIGPEGVLAGKTRVLVTHGISFLPQTDFIIVLADGQVSEMGPYPALLQRNGSFANFLCNYAPDEDQGHLEDSWTALEGAEDKEALLIEDTLSNHTDLTDNDPVTYVVQKQFMRQLSALSSDGEGQGRPVPRRHLGPSEKVQVTEAKADGALTQEEKAAIGTVELSVFWDYAKAVGLCTTLAICLLYVGQSAAAIGANVWLSAWTNDAMADSRQNNTSLRLGVYAALGILQGFLVMLAAMAMAAGGIQAARVLHQALLHNKIRSPQSFFDTTPSGRILNCFSKDIYVVDEVLAPVILMLLNSFFNAISTLVVIMASTPLFTVVILPLAVLYTLVQRFYAATSRQLKRLESVSRSPIYSHFSETVTGASVIRAYNRSRDFEIISDTKVDANQRSCYPYIISNRWLSIGVEFVGNCVVLFAALFAVIGRSSLNPGLVGLSVSYSLQVTFALNWMIRMMSDLESNIVAVERVKEYSKTETEAPWVVEGSRPPEGWPPRGEVEFRNYSVRYRPGLDLVLRDLSLHVHGGEKVGIVGRTGAGKSSMTLCLFRILEAAKGEIRIDGLNVADIGDPILFSGTLRMNLDPFGSYSEEDIWWALELSHLHTFVSSQPAGLDFQCSEGGENLSVGQRQLVCLARALLRKSRILVLDEATAAIDLETDNLIQATIRTQFDTCTVLTIAHRLNTIMDYTRVLVLDKGVVAEFDSPANLIAARGIFYGMARDAGLA
[1]
  Km: 776 µM
[2]
  Km: 25.6 µM
[3]
  Km: 5.3 µM
[4]
  Km: 5.7 µM
[5]
  Km: 248 µM
